The source of these data is patent publication US20160264684A1, “GLYCAN-INTERACTING COMPOUNDS AND METHODS OF USE” (SIAMAB THERAPEUTICS, INC., priority 2013, published 2016).

Values joined by “and” are separate entries in the source; they are usually repeats but may differ in a detail not shown here. Equal values may be shown once.

The nature of assay [1]: Glycan microarray analysis, Tn antigen or other glycans. The class given is binding. The procedure: Optimized glycan arrays comprise 71 chemically synthesized and well-defined glycans, most of which comprise Neu5Ac and Neu5Gc glycan pairs.
300 ml of epoxy blocking buffer is prepared by combining 15 ml of 2 M Tris buffer (pH 8) with 0.9 ml of 16.6 M ethanolamine and 284.1 ml of distilled water. The solution is filtered using a 0.2 μM nitrocellulose membrane. The epoxy buffer solution as well as 1 L of distilled water are pre-warmed to 50° C. Glass slides are arranged in a slide holder and quickly submerged in a staining tub with the warmed epoxy blocking buffer. Slides are incubated in the epoxy blocking buffer for 1 hour at 50° C. with periodic shaking to deactivate epoxy binding sites. Next, slides are rinsed and blocked with PBS with 1% OVA at 25° C. for one hour. Serum samples are diluted 1:1000 in PBS with 1% OVA and added to the glycan array for one hour at 25° C. After extensive washing, binding of polyclonal serum antibodies are detected by incubating glycan microarray slides with Cy3-conjugated anti-mouse IgG (Jackson Immunoresearch, West Grove, Pa.) for one hour. […]
18D2 and 18C7 clones were expanded and binding properties of these hybridomas were determined by glycan microarray analysis according to Example 4. […] No binding to Tn antigen or other glycans was detected.

In assay [2] the test system is STn on bovine submaxillary mucin (BSM). In words: Anti-STn BSM ELISA. The format is binding. As for the experimental part: Anti-STn serum titer is determined using a murine anti-STn bovine submaxillary mucin (BSM) ELISA together with serum profiles observed by glycan microarray. 96-well plates are coated with 1 μg/well of BSM and incubated overnight at 4° C. O-acetylation of BSM antigen is removed by treating wells with 0.1 M sodium hydroxide. Specific binding to STn is determined by treatment of wells with sodium periodate. Periodate treatment destroys the C6 side chain of sialic acid; therefore antibodies raised against STn should not bind to periodate-treated wells. Wells are blocked with PBS 1% ovalbumin (OVA). Serum samples to be assayed are serially diluted in PBS 1% OVA. A commercially available mouse anti-STn monoclonal antibody, 3F1 (SBH Sciences, Natick, Mass.) is used as a positive control. This antibody is also serially diluted in PBS with 1% OVA. A pool of serum from naïve wild type mice is used for the preparation of negative control samples. Detection of anti-STn antibodies present in serum is determined using an HRP-conjugated polyclonal goat anti-mouse IgG antibody (Jackson Immunoresearch, West Grove, Pa.). The reaction is stopped by addition of sulfuric acid (1.6 M). Optical densities are measured at 490 nm using a Spectramax microplate reader (Molecular Devices, Sunnyvale, Calif.). The serum titer is obtained by comparison of OD values with a cutoff value calculated as two standard deviations above the mean of optical density values of the negative control. […]
Binding affinities of 18D2 and 18C7 to STn were compared to commercially available anti-STn antibodies using the BSM ELISA assay described in Example 2. […] Antibody binding was determined using HRP-conjugated polyclonal goat anti-mouse IgG antibody (Jackson Immunoresearch Laboratories, West Grove, Pa.). […] Optical densities were measured at 490 nm using a Spectramax microplate reader. […] The half maximal effective concentration (EC50) for each antibody was calculated using a non-linear regression analysis carried out on periodate subtracted data.

Assay [3] concerns ST6GalNAc 1 transfected MDA-MB-231 cells. The assay is described as follows: Flow cytometry-based analysis of antibody binding, STn+ cells. The class given is cell-based, human. The procedure: Flow cytometry-based analysis is carried out to elucidate the curve-dose response for binding of antibodies to cell surface antigens. For these analyses, three cell lines are employed.
MDA-MB-231 cells are human breast cancer cells. They are grown in Earle's Minimum Essential Medium supplemented with 10% fetal calf serum (FCS), 100 μg/ml penicillin, 100 UI/ml streptomycin and 45 μg/ml gentamycin. MCF-7 cells are also human breast cancer cells and are grown under the same conditions as MDA-MB-231 cells. Stably transfected versions of MDA-MB-231 and MCF-7 cells (clone TAH3.P10 for MDA-MB-231 cells and clone A12.1 for MCF-7 cells) that over express GalNAc α2,6-sialyltransferase (ST6GalNAc 1,) are also cultured under the same conditions with the exception of an added 1 mg/ml of G418 to support cells expressing the transgene. ST6GalNAc 1 is an enzyme capable of sialylating GalNAc. […]
For analysis, cells are harvested using StemPro Accutase (Life Technologies, Carlsbad, Calif.) and washed with PBS comprising 5% FBS before pelleting by light centrifugation. Cell numbers and viability are determined by trypan blue dye exclusion analysis and cell concentrations are adjusted to 5×10^6 cells/ml in PBS with 5% FBS. […] Cells are combined with 50 μl solutions of antibody being analyzed or control antibodies and incubated for 1 hour at 4° C. […]
(In flow cytometry, cells or beads pass a laser one at a time.)

B1: 18D2: anti-STn monoclonal antibody from mouse #4436; IgG2b κ; heavy chain SEQ ID NO 1, light chains SEQ ID NO 2 and 3 (antibody, V domains shown)
VH: QVTLKESGPGILQPSQTLSLTCSFSGFSLSTSNMGIGWIRQPSGKGLEWLAHIWWHDDKYYNPSLKSRLTISKDISNNQVFLKITSVDTADTATYYCAQVPFYYGTSFDVWGTGTTVTVSS
VL 1: DIVMTQSPATLSVTPGDRVSLSCRASQSISDYLHWYQQKSHESPRLLIKYASQSISGIPSRFSGSGSGSDFTLSINSVEPEDVGVYYCQNGHSFPLTFGAGTKLELK
VL 2: QIVLTQSPAIMSASPGETVTMTCSASSSITYMHWYQQKPGTSPKRWIYDTSKLASGVPARFSGSGSGTSYSLTISSMEAEDAATYYCHQRSSYTFGGGTKLEIKR
Usually EC50 stands for the concentration at which the effect is half-maximal. A low value points to an effect from little substance. As to B1, the “binding to Tn antigen or other glycans” value in assay [1] is given as “No binding”. Besides, the “binding to periodate-treated wells” value in assay [2] (BSM ELISA, sodium periodate treated wells) is “did not bind”. For the same molecule, the concentration giving a half-maximal response (EC50) in assay [2] (non-linear regression on periodate subtracted data, 7-point 1:5 dilution from 100 nM) is 6.3 nM; in assay [3] (no unit printed (same values in nM in b551, b556)), 65.8 nM. Besides, in assay [3] (ST6GalNAc 1 transfected MDA-MB-231 cells (STn expressed on MDA cells)), the “EC50, flow cytometry binding to cell-associated STn” value is 44.08 nM and 74.51 nM.
